Assay results reported in US20260259223A1 (NORDIC BIOSCIENCE A S, published 2026).
Primed or numbered codes have the meaning given here. Where no end group is shown, it is not given here. Biotin′ = not defined here

B1: Standard peptide (Selection peptide) DSGPEYADVV (peptide)
peptide: DSGPEYADVV
notes: Synthetic peptide from Genscript; also called C6A6
B2: monoclonal antibody clone NBH-306-11 8E7-2C11-1F10-2C10 (antibody, mouse IgG1, kappa, V domains shown)
VH: EVKLVESGGDLVKPGGSLKLSCAASGFTFTSYAMSWVRQTPEKRLEWVASVTSGGTHYLDSVKGRFTISRDIARNILYLQMSSLRSEDTAMYFCARGVSFAYWGQGTLVTVSA
VL: DIVMTQSQKFMSTSVGDRVSVTCKASQNVGTDVVWYQQRPGQSPKALMYSASYRYSGVPDRFTGSGSGTDFTLTISNVQSEDLAEYFCQHYDNYPLTFGAGTKLELKR
notes: also called the mAb; C6A6 assay antibody

Assays:
[1] = target: B2; test: competitive CLIA: the free standard peptide competes with plate-coated …-K-Biotin for the HRP-labelled mAb (200 ng/mL)
Experimental: The development of a competitive chemiluminescence immunoassay (CLIA) targeting the C6A6 target sequence included several preliminary optimizing experiments where reagents, concentrations, incubation-time and -temperature were analyzed by several tests. […] The relative light units were measured at all wavelengths within 5 min on a microplate luminometer reader (SpectraMax M5, Molecular Devices, CA, USA). […] Data were analyzed using the SoftMax Pro version 7.0.3 software.
(§1) Two-fold dilutions of four human serum and two rat serum samples were used to assess linearity. Linearity was calculated as a percentage of recovery of the undiluted sample. Antibody specificity was calculated as percentage of signal inhibition by two-fold diluted standard peptide ([…] (SEQ ID NO: 1)), elongated peptide ([…] (SEQ ID NO: 2)), truncated peptide ([…] (SEQ ID NO: 3)), and non-sense peptide ([…] (SEQ ID NO: 17)). The intra- and inter-assay variation was determined by 10 independent runs of five quality controls and two kit controls run in double determinations.

[2] = target: T1, Non-sense coating peptide YRDDLKKLLE-Biotin; test: CLIA/ELISA on a streptavidin plate coated with the non-sense coating peptide
T1 construct: also called non-sense coater
T1 peptide: YRDDLKKLLE-{Biotin′}

[3] = target: T2, Elongated standard peptide (Elongated selection peptide) QDSGPEYADVV (human); test: competitive CLIA/ELISA (signal inhibition by two-fold diluted peptide)
T2 construct: also called elongated peptide
T2 peptide: QDSGPEYADVV
Experimental: (§2) The development of a competitive chemiluminescence immunoassay (CLIA) targeting the C6A6 target sequence included several preliminary optimizing experiments where reagents, concentrations, incubation-time and -temperature were analyzed by several tests. The final C6A6 competitive ELISA procedure was as follows: A 96-well streptavidin-coated white microplate (Greiner Bio-One, Kremsmünster, Austria) was coated with 3 ng/mL biotinylated synthetic peptide ([…]-K-Biotin (SEQ ID NO: 18)) dissolved in assay buffer (10 mM phosphate buffered saline (PBS), 1% bovine serum albumin, 0.1% Tween-20, 0.36% Bronidox, 4 g/L NaCl, adjusted to pH 7.4 at 20° C.) and incubated for 30 min at 20° C. with constant shaking (300 rpm) in darkness. Next, 20 μL/well of standard peptide (100 ng/ml) and samples were added to the appropriate wells, followed by the addition of 100 μL/well of HRP-labelled antibody (generated as described above) diluted in assay buffer to the concertation of 200 ng/ml and incubated for 1 h at 20° C. with constant shaking (300 rpm) in darkness. After each incubation step, wells were washed five times with standard washing buffer (20 mM Tris, 50 mM NaCl, pH 7.2). […] The relative light units were measured at all wavelengths within 5 min on a microplate luminometer reader (SpectraMax M5, Molecular Devices, CA, USA). […] Data were analyzed using the SoftMax Pro version 7.0.3 software.
as §1

[4] = target: T3, Non-sense standard peptide YRDDLKKLLE; test: as above
T3 construct: also called non-sense peptide
T3 peptide: YRDDLKKLLE
Experimental: as §2, §1

[5] = target: T4, Truncated standard peptide (Truncated selection peptide) SGPEYADVV (human); test: as above
T4 construct: also called truncated peptide
T4 peptide: SGPEYADVV
Experimental: as §2, §1

[6] = target: B1; test: ELISA screening of hybridoma clones / specificity test

B1
IC50 [1]: 3.86 ng/mL

B2
binding result [2]: no binding | binding result [3]: no binding | binding result [4]: no binding | binding result [5]: no binding | binding result [6]: binds
